From patent publication US20250171562A1 (ALK ABELL, published 2025)

Key:
recombinant human IgE = target: T1, recombinant human IgE (human, UniProt P01854-1 1-428); assay: IgE-FcεRIα displacement ELISA
T1 construct: made in-house (ALK); preloaded on immobilised FcεRIα in the displacement ELISA
Summary of the method: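 Streptavidin-coated plates carried site-specifically biotinylated recombinant human FcεRIα, loaded with recombinant human IgE at 13 ng/ml. sdAbs in a pM–μM series were added for 1 h, and displaced IgE was washed off. Percent displacement was the signal reduction versus the no-sdAb control, giving EC50 and maximal effect.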

[1] = target: T2, biotinylated IgE: FcεRIα complex (UniProt P01854 104-428; P12319 26-205, biotinylated); assay: yeast display titration, flow cytometry
T2 construct: preformed complex used for yeast display titration and deep mutational scanning; also called IgE-Fc/FcεRIα; IgE-Fc Cε2-Cε4/FcεRIα complex

biotinylated IgE Fc = target: T3, biotinylated IgE Fc (UniProt P01854-1 104-428, biotinylated); assay: BLI (Octet), IgE Fc on sensor, 1:1 fit
T3 construct: also called IgE Fc (made in-house ALK, Denmark)
Procedure: The biotinylated IgE Fc (made in-house ALK, Denmark) was immobilised on SAX (High precision streptavidin) sensors (FortéBIO) to max 1 nm. The association (240 s) and dissociation (600 s) were measured for the analytes in a serial dilution (from 10 nM to 0.37 nM). Data were subtracted to blank reference sensors exposed to the same serial analyte dilutions, aligned, and analysed in the Octet Data Analysis HT 11.1 Software (FortéBIO) using a 1:1 fitting model.

IgE-Fc Cε3-4 [2] = target: T4, IgE-Fc Cε3-4 (human, UniProt P01854-1 209-428, limits assumed); assay: ELISA, immobilised IgE-Fc Cε3-4
T4 construct: domain: Cε3-Cε4; coated at 2 µg/mL in the ELISA; also called IgE-Fc Cε3-Cε4
Procedure: (§1) SdAb monomers of interest (table 1) and identified in example 2 were amplified from pNT plasmid by PCR and recloned in pET22b plasmid by SLICE cloning reaction. Thereby, a pelB signal sequence and a C-terminal his/HA tag were added to the sdAbs allowing for secretion into periplasmic space and subsequent purification and detection. SdAbs were expressed in E. coli Rosetta (DE3) cells using 2YT media. Expression was induced in early exponential phase with 0.5 mM IPTG and carried overnight at 20° C.-25° C. Purification of sdAbs from supernatant or supernatant+periplasmic extract was performed by IMAC using HisTrap excel column (Cytiva) as first step and by SEC with a Hiload 16-600 Superdex® 75 pg (Cytiva) column as second step. Size and purity of each sdAbs were evaluated on a 15% acrylamide SDS-PAGE. Then, immunoreactivity of sdAbs against immobilized IgE-Fc Cε2-4 and IgE-Fc Cε3-4 was analysed by ELISA. IgE-Fc were coated at 2 μg/mL overnight in a Nunc MaxiSorp plate (ThermoFisher). After blocking sdAbs were added at a 1:10 dilution in TBS and incubated 3h at room temperature. Detection was performed using a mouse anti-HA antibody (ThermoFisher) and an anti-mouse IgG AP conjugated (Sigma Aldrich).

IgE-Fc Cε2-4 = target: T5, IgE-Fc Cε2-4 (human, UniProt P01854-1 104-428, limits assumed); assay: ELISA, immobilised IgE-Fc
T5 construct: domain: Cε2-Cε4; coated at 2 µg/mL in the ELISA; also called IgE-Fc Cε2-Cε4
Procedure: as §1

IgE-Fc Cε3-4 [3] = target: T4, IgE-Fc Cε3-4; assay: ELISA, immobilised IgE-Fc
Procedure: as §1

T3 sequence (P01854 other isoform, or with tags, fused parts or gaps): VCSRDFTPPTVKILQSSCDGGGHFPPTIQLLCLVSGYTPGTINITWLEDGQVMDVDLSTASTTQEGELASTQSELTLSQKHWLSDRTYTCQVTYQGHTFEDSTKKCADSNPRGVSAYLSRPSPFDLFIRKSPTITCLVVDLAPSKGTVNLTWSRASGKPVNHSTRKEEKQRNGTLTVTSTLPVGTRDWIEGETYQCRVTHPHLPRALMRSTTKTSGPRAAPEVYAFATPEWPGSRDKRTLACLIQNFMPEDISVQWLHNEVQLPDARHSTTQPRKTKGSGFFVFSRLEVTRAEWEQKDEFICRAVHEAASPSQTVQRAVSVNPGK
T4 sequence (P01854 other isoform, or with tags, fused parts or gaps limits assumed): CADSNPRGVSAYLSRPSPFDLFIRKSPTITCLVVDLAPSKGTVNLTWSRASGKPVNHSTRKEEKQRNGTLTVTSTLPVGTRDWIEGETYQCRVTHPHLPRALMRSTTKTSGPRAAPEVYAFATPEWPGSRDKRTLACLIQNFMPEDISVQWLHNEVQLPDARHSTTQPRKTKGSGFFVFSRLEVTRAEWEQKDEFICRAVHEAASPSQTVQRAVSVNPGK
T1 sequence (P01854 other isoform, or with tags, fused parts or gaps): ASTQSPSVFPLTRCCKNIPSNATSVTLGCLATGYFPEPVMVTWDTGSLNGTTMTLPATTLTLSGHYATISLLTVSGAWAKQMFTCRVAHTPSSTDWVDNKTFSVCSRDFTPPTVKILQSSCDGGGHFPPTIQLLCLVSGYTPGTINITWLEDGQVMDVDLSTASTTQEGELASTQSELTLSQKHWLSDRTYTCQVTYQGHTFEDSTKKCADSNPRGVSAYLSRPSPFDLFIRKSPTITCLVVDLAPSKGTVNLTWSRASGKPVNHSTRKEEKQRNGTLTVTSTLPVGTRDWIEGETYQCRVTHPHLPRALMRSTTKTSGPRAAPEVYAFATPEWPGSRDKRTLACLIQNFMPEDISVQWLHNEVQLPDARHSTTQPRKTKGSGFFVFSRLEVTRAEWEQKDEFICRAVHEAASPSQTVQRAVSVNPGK
T2 sequence (P12319 26-205, chain 2 of 2): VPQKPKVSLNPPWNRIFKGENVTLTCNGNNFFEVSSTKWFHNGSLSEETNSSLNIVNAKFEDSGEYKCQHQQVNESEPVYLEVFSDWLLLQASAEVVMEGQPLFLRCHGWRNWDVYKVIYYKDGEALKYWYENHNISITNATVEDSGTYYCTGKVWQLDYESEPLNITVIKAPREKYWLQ

B1: sdAb A1 (VHH)
VHH: EVQLLESGGGLVQPGGSLRLSCAASGFTFGNYDMAWVRQAPGKRPEWVSSIDTGGDITHYADSVKGRFTISRDNAKNTLYLQMNSLRPEDTAVYWCATDEEYALGPNEFDYYGQGTLVTVSS
notes: also called sdAb 026; IGE026
Question: For B1, which EC50 (recombinant human IgE) is on record?
Answer: 800 nM

Question: And the Max effect (recombinant human IgE)?
Answer: > 95%

Question: And the “apparent Kd (pooled screen)” value [1]?
Answer: 0.345 nM

Question: And the Kd (biotinylated IgE Fc)?
Answer: 0.19 nM

Question: And the koff (biotinylated IgE Fc)?
Answer: 0.0002 s⁻¹

Question: And the kon (biotinylated IgE Fc)?
Answer: 1e+06 M⁻¹ s⁻¹

B2: sdAb B1 (VHH)
VHH: QVQLQESGGGLVQTGGSLRLSCAVHGRTFSNTGMGWFRQAPGNERQFVAIISPSGTSTYYADSVKGRFTISRDPAKNTVYLQMNSLKMDDTAVYYCAASYGSNWSTLRHQRRNEYDAWGQGTQVAVS
Question: How did the EC50 (recombinant human IgE) turn out when B2 was run?
Answer: 200 nM

Question: And the Max effect (recombinant human IgE)?
Answer: 65%

Question: And the Kd (biotinylated IgE Fc)?
Answer: 65 nM

Question: And the koff (biotinylated IgE Fc)?
Answer: 0.049 s⁻¹

Question: What about the kon (biotinylated IgE Fc) of the same binder?
Answer: 760000 M⁻¹ s⁻¹

Question: Does B2 bind (IgE-Fc Cε3-4 [2])?
Answer: no binding

B3: sdAb E4 (VHH)
VHH: DVQLQESGGGLVQPGGSLRLSCAASGFRFSNYAMRWYRQAPGKEREFVARISSTGFITRYTASVRDRFTISRDNDKNMMYLQLNKLTPQDTAHYYCNAESTDYWGQGTQVTVS
Question: Does B3 bind (IgE-Fc Cε3-4 [2])?
Answer: no binding

Question: Does B3 bind (IgE-Fc Cε2-4)?
Answer: binds

B4: sdAb B2 (VHH)
VHH: QVQLVESGGGLVQAGGSLRLSCAVFGSTFSNNVADWYRQAPGKQRELVARISASGATREYGDSVKGRFTISRDDAKNTMYLQMNNLKPEDTAVYRCHKIEWEDLSRKDYWGQGTQVTVS
Question: With B4 as the binder, how does the Max effect (recombinant human IgE) read?
Answer: < 20%

Question: What about the Kd (biotinylated IgE Fc) of the same binder?
Answer: 0.11 nM

Question: What about the koff (biotinylated IgE Fc) of the same binder?
Answer: 7.8e-05 s⁻¹

Question: What about the kon (biotinylated IgE Fc) of the same binder?
Answer: 700000 M⁻¹ s⁻¹

Question: Does B4 bind (IgE-Fc Cε3-4 [2])?
Answer: no binding

B5: sdAb B3 (VHH)
VHH: DVQLQESGGGLVQAGGSLRLSCAASGFIFRLAGMSWVRQAPGKGFEWVSGITMDGSTTNYADSVKGRFTISRDNSKNRLYLQMNSLKPEDTAVYYCARGAKGGYNDPRGQGTQVTVS
Question: What does the source list for B5?
Answer: Max effect (recombinant human IgE): 0%; Kd (biotinylated IgE Fc): 0.28 nM; koff (biotinylated IgE Fc): 0.00025 s⁻¹; kon (biotinylated IgE Fc): 880000 M⁻¹ s⁻¹; binding result (IgE-Fc Cε3-4 [2]): no binding

B6: sdAb D1 (VHH)
VHH: DVQLQESGGGLVQAGGSLRLSCAASGLTFSRCDMGWFRQAPGKEREFVARISANGASTHYADFVKGRFTISRDNAKNTVYLQMNYLKPEDTAVYICAAARVPVTWQLYDYWGQGTQVTVS
Question: With B6 as the binder, how does the Max effect (recombinant human IgE) read?
Answer: 0%

Question: What about the Kd (biotinylated IgE Fc) of the same binder?
Answer: 3.2 nM

Question: What about the koff (biotinylated IgE Fc) of the same binder?
Answer: 0.00045 s⁻¹

Question: What about the kon (biotinylated IgE Fc) of the same binder?
Answer: 140000 M⁻¹ s⁻¹

Question: Does B6 bind (IgE-Fc Cε3-4 [2])?
Answer: no binding

B7: sdAb D2 (VHH)
VHH: DVQLQESGGGLVEAGGSLRLSCVASGRTFSGWSMGWFRQAPGKEREFVAAISWVGSWIGGTVYSNSVKGRFTISRDNARTTVYLQMNSLKPEDTAVYFCAAANSETPRIFASEYDYWGQGTQVTVS
Question: What does the source list for B7?
Answer: EC50 (recombinant human IgE): 10000 nM; Max effect (recombinant human IgE): 50%; Kd (biotinylated IgE Fc): 81 nM; koff (biotinylated IgE Fc): 0.02 s⁻¹; kon (biotinylated IgE Fc): 240000 M⁻¹ s⁻¹; binding result (IgE-Fc Cε3-4 [2]): no binding

B8: sdAb E1 (VHH)
VHH: DVQLQESGGGLVQAGGSLRLSCLASGRTFTTTSGYNMGWFRQAPGKEREFVAGIKWVSGSNRAYAESVKGRFTISRDNAKNTVYLQMNSLKPEDTAVYYCAAATGQSYVPIREYEYVYWGQGTQVTVS
Question: What does the source list for B8?
Answer: Max effect (recombinant human IgE): < 20%; binding result (IgE-Fc Cε3-4 [2]): no binding

B9: sdAb E2 (VHH)
VHH: DVQLQESGGGLVQAGGSLRLSCAASGRTISRYAVGWFRRPPAKEREFIGINWSGGSTTYADSAEGRFIISRDNAKNTVYLQMNSLKPEDTAVYYCAVPSVLVQGGISNPSQYDYWGQGTQVTVS
Question: What does the source list for B9?
Answer: Max effect (recombinant human IgE): 0%; binding result (IgE-Fc Cε3-4 [2]): no binding

B10: sdAb E3 (VHH)
VHH: DVQLQESGGGLVQAGGSLRLACAASGRTLSSYVVSWFRQAPGKERKFVAAITWSGLSTTYLDSVQGRFTISRDNTKDTVYLQMNSLKPQDTAIYYCAAGPNIPSILRTRESEYAYWGQGTQVTVS
Question: How did the Max effect (recombinant human IgE) turn out when B10 was run?
Answer: 0%

Question: Does B10 bind (IgE-Fc Cε3-4 [2])?
Answer: no binding

B11: sdAb F1 (VHH)
VHH: DVQLQESGGGLVQAGGSLKLSCAASGGSLSRYDMGWFRQAPGKEREFVARISWSGTTKYYADAVKGRFAISRDNAKNTVYLQMNSLKPEDTAVYYCAAAFYGNRGYYDVNAYTSSGQGTQVTVS
Question: Which Max effect (recombinant human IgE) does the source give for B11 here?
Answer: 0%

Question: Does B11 bind (IgE-Fc Cε3-4 [2])?
Answer: no binding

B12: sdAb F3 (VHH)
VHH: DVQLQESGGGLVQAGGSLKLSCAASRGSLSRWDVAWFRQAPGKERSFVTRISWSGTTSYYADAVKGRFAISRDNAKNTVYLQMNSLKPEDTAVYYCAVALYGNRGYYDVNAHSYWGQGTQVTVS
Question: How did the Max effect (recombinant human IgE) turn out when B12 was run?
Answer: 0%

Question: Does B12 bind (IgE-Fc Cε3-4 [2])?
Answer: no binding

B13: sdAb F4 (VHH)
VHH: DVQLQESGGGLVQAGGSLRLSCAVSGLSFSSMGWFRQPPGKEREFVAAISLYSGSTYYADSVKGRFTISSDNAKSTVYLQMNSLKPEDAAVYFCAADRQRTWSTFYASRQATYNYWGQGTQVTVTS
Question: For B13, which Max effect (recombinant human IgE) is on record?
Answer: < 20%

Question: Does B13 bind (IgE-Fc Cε3-4 [2])?
Answer: no binding

B14: sdAb F5 (VHH)
VHH: DVQLQESGGGLVQPGGSLRLSCAASGSIFSIDIMGWYRQAPGKQRELVATMPEGNYINYADSVKGRLTLSRDKGKNTVYLQLNSLKPEDTAVYYCYGFGVREGRGNVYWGQGTQVTVS
Question: B14 was tested. Which Max effect (recombinant human IgE) did it give?
Answer: 35%

Question: Does B14 bind (IgE-Fc Cε3-4 [2])?
Answer: no binding

B15: sdAb G1 (VHH)
VHH: DVQLQESGGGLVQAGGSLRLSCAASGFIVSDNVMSWYRQAPGKQRDMVATIMLNGDTAHADSVKGRFTISRDHAKNTVYLQMNSLKPEDTAVYYCNARDSMLEPGRGAWGQGTLVTVS
Question: Does B15 bind (IgE-Fc Cε3-4 [3])?
Answer: binds

Question: Does B15 bind (IgE-Fc Cε2-4)?
Answer: binds

B16: A1D2(G4S)4 (bispecific antibody)
chain: EVQLLESGGGLVQPGGSLRLSCAASGFTFGNYDMAWVRQAPGKRPEWVSSIDTGGDITHYADSVKGRFTISRDNAKNTLYLQMNSLRPEDTAVYWCATDEEYALGPNEFDYYGQGTLVTVSGGGGSGGGGSGGGGSGGGGSDVQLQESGGGLVEAGGSLRLSCVASGRTFSGWSMGWFRQAPGKEREFVAAISWVGSWIGGTVYSNSVKGRFTISRDNARTTVYLQMNSLKPEDTAVYFCAAANSETPRIFASEYDYWGQGTQVTVS
Question: How did the EC50 (recombinant human IgE) turn out when B16 was run?
Answer: 10 nM

Question: What about the Max effect (recombinant human IgE) of the same binder?
Answer: > 95%

B17: A1A1(G4S)4 (VHH)
chain: EVQLLESGGGLVQPGGSLRLSCAASGFTFGNYDMAWVRQAPGKRPEWVSSIDTGGDITHYADSVKGRFTISRDNAKNTLYLQMNSLRPEDTAVYWCATDEEYALGPNEFDYYGQGTLVTVSGGGGSGGGGSGGGGSGGGGSEVQLLESGGGLVQPGGSLRLSCAASGFTFGNYDMAWVRQAPGKRPEWVSSIDTGGDITHYADSVKGRFTISRDNAKNTLYLQMNSLRPEDTAVYWCATDEEYALGPNEFDYYGQGTLVTVS
notes: monospecific, bivalent control of two A1 linked by (G4S)4
Question: Which EC50 (recombinant human IgE) does the source give for B17 here?
Answer: 250 nM

Question: What about the Max effect (recombinant human IgE) of the same binder?
Answer: 90%

B18: F1A1(G4S)4 (bispecific antibody)
chain: DVQLQESGGGLVQAGGSLKLSCAASGGSLSRYDMGWFRQAPGKEREFVARISWSGTTKYYADAVKGRFAISRDNAKNTVYLQMNSLKPEDTAVYYCAAAFYGNRGYYDVNAYTSSGQGTQVTVSGGGGSGGGGSGGGGSGGGGSEVQLLESGGGLVQPGGSLRLSCAASGFTFGNYDMAWVRQAPGKRPEWVSSIDTGGDITHYADSVKGRFTISRDNAKNTLYLQMNSLRPEDTAVYWCATDEEYALGPNEFDYYGQGTLVTVS
Question: How did the EC50 (recombinant human IgE) turn out when B18 was run?
Answer: 4000 nM

Question: And the Max effect (recombinant human IgE)?
Answer: > 95%
